Results reported in patent US10597674B2, “HPPD variants and methods of use” (BASF Agricultural Solutions Seed, US LLC, priority 2015, dated 2020).

Experiments:
[1] = test system: HPPD polypeptides (wild-type SEQ ID NO:1 and mutants); settings: low substrate concentration; for Residual activity: kapp in presence of 50 μM Cmpd. 1, normalised to kapp without inhibitor; for Residual turnover: total change in signal in presence of 50 μM Cmpd. 1, normalised to that without inhibitor
[2] = test system: E. coli cells expressing an HPPD polypeptide; assay: Brown color bioassay in liquid culture, residual brown color formation (BCF), OD440 after 96 hours; format: cell-based; settings: for Control BCF OD440nm: brown color formation in absence of Cmpd. 1, culture supernatant after 96 hours, 5 mM HPP; for Residual BCF OD440nm [%]: brown color formation with Cmpd. 1 (1000 μM) relative to without, after 96 hours
Experimental: In an additional experiment, mutant HPPD polypeptides were analyzed using the principle of a colorimetric brown color assay (as, for example, described in U.S. Pat. No. 6,768,044). Bacterial cells expressing the HPPD polypeptides according to this invention were assayed in 96 well plate format (Nunc® 96 DeepWell™ plate, Sigma-Aldrich, St. Louis, USA) for HPPD polypeptides with improved HPPD inhibitor herbicide tolerance.
E. coli cells were grown in liquid LB medium (Carl Roth GmbH+Co. KG, Karlsruhe, Germany) containing the selection agent for the expression vector pSE420(RI)NX (WO2014/043435) and 5 mM para-hydroxyphenylpyruvate (HPP; Sigma-Aldrich, St. Louis, USA), in the presence of absence of the HPPD inhibitor herbicide e.g. Cmpd. 1 (1000 μM). An overnight culture of E. coli culture expressing one of the respective HPPD polypeptides according to this invention were adjusted to an OD600 of 0.3-0.5 in a final volume of 500 μL and incubated at 30 degree Celsius. Residual brown color formation was determined by measuring the brown color formation (BCF) in the presence and absence of Cmpd. […] Therefore, after 96 hours the culture was centrifuged and the supernatant of the culture was used to measure the optical density of the soluble brown pigment formation at 440 nm (OD440 nm).

Row | Molecule | Residual activity [1] [%] | Residual turnover [1] [%] | Control BCF OD440nm [2] | Residual BCF OD440nm [%] [2] [%]
1 | 87 (protein, mutant HPPD polypeptide) MADLYENPMGLMGFEFIEFASPTPGTLEPIFEIMGFTKVATHRSKNVHLYRQGEINLILNNEPNSIASYFAAEHGPSVCGMAFRVKDSQKAYNRALELGAQPIHIDTGPMELNLPAIKGIGGAPLYLIDRFGEGSSIYDIDFVYLEGVERNPVGAGLKVIDHLTHNVYRGRMVYWANFYEKLFNFREARYFDIKGEYTGLTSKAMSAPDGMIRIPLNEESSKGAGQIEEFLMQFNGEGIQHVAFLTDDLVKTWDALKKIGMRFMTAPGDEYYEMLEGRLPDHGEPVDQLQARGILLDGSSVEGDKRLLLQIFSETLMGPVFFEFIQRKGDDGFGPDSFKVLFESAERDQVRRGVLTAD | 17 | 53 | 1.91 | 68
2 | 92 (protein, mutant HPPD polypeptide) MADLYENPMGLMGFEFIEFASPTPGTLEPIFEIMGFTKVATHRSKNVHLYRQGEINLILNNEPNSIASYFAAEHGPSVCGMAFRVKDSQKAYNRALELGAQPIHIDTGPMELNLPAIKGIGGAPLYLIDRFGEGSSIYDIDFVYLEGVERNPVGAGLKVIDHLTHNVYRGRMVYWANFYEKLFNFREARYFDIKGEYTGLTSKAMSAPDGMIRIPLNEESSKGAGQIEEFLMQFNGEGIQHVAFLTDDLVKTWDALKKIGMRFRTAPGDEYYEMLEGRLPDHGEPVDQLQARGILLDGSSVEGDKRLLLQIFSETLMGPVFFEFIQRKGHDGFGPDSFKVLFESAERDQVRRGVLTAD | 61 | 81 | 1.38 | 59
3 | 89 (protein, mutant HPPD polypeptide) MADLYENPMGLMGFEFIEFASPTPGTLEPIFEIMGFTKVATHRSKNVHLYRQGEINLILNNEPNSIASYFAAEHGPSVCGMAFRVKDSQKAYNRALELGAQPIHIDTGPMELNLPAIKGIGGAPLYLIDRFGEGSSIYDIDFVYLEGVERNPVGAGLKVIDHLTHNVYRGRMVYWANFYEKLFNFREARYFDIKGEYTGLTSKAMSAPDGMIRIPLNEESSKGAGQIEEFLMQFNGEGIQHVAFLTDDLVKTWDALKKIGMRFMTAPGDEYYEMLEGRLPDHGEPVDQLQARGILLDGSSVEGDKRLLLQIFSETLMGPVFFEFIQRKGDDGFGPDSFKVLFESKERDQVRRGVLTAD | 23 | 43 | 2.36 | 67
4 | 88 (protein, mutant HPPD polypeptide) MADLYENPMGLMGFEFIEFASPTPGTLEPIFEIMGFTKVATHRSKNVHLYRQGEINLILNNEPNSIASYFAAEHGPSVCGMAFRVKDSQKAYNRALELGAQPIHIDTGPMELNLPAIKGIGGAPLYLIDRFGEGSSIYDIDFVYLEGVERNPVGAGLKVIDHLTHNVYRGRMVYWANFYEKLFNFREARYFDIKGEYTGLTSKAMSAPDGMIRIPLNEESSKGAGQIEEFLMQFNGEGIQHVAFLTDDLVKTWDALKKIGMRFMTAPGDEYYEMLEGRLPDHGEPVDQLQARGILLDGSSVEGDKRLLLQIFSETLMGPVFFEFIQRKGDDGFGPDSFKVLFESIERDQVRRGVLTAD | 20 | 44 | 2.21 | 77
5 | 39 (protein, mutant HPPD polypeptide) MADLYENPMGLMGFEFIEFASPTPGTLEPIFEIMGFTKVATHRSKNVHLYRQGEINLILNNEPNSIASYFAAEHGPSVCGMAFRVKDSQKAYNRALELGAQPIHIDTGPMELNLPAIKGIGGAPLYLIDRFGEGSSIYDIDFVYLEGVERNPVGAGLKVIDHLTHNVYRGRMVYWANFYEKLFNFREARYFDIKGEYTGLTSKLMSAPDGMIRIPLNEESSKGAGQIEEFLMQFNGEGIQHVAFLTDDLVKTWDALKKIGMRFMTAPGDEYYEMLEGRLPDHGEPVDQLQARGILLDGSSVEGDKRLLLQIFSETLMGPVFFEFIQRKGDDGFGPDSFKVLFESVERDQVRRGVLTAD | 34 | 61 | 1.63 | 55
